Results as given in the DeepSol protein solubility set.

Assay: soluble on expression in E. coli; label from the status in PepcDB or PDB records

Sequence | soluble on expression in E. coli
MASWSHPQFEKGASLDSPTFGCTDSPVRRERGQKAVFCGLTSIVWLHRKMQDAFFLVVGSRTCAHLLQAAAGVMIFAEPRFGTAVLEEQDLAGLADAHKELDREVAKLLERRPDIRQLFLVGSCPSEVLKLDLDRAAERLSGLHAPHVRVYSYTGSGLDTTFTQGEDTCLAAMVPTLDTTEAAELIVVGALPDVVEDQCLSLLTQLGVGPVRMLPARRSDIEPAVGPNTRFILAQPFLGETTGALERRGAKRIAAPFPFGEEGTTLWLKAVADAYGVSAEKFEAVTAAPRARAKKAIAAHLETLTGKSLFMFPDSQLEIPLARFLARECGMKTTEIATPFLHKAIMAPDLALLPSNTALTEGQDLEAQLDRHEAINPDLTVCGLGLANPLEAKGHATKWAIELVFTPVHFYEQAGDLAGLFSRPLRRRALLNGGAA | soluble
MAGDPMTKQEKIQKTITFVKHILEKDASGHDWYHIERVHKMAISLSEQEGGNRFIIEMAALLHDVADEKLNESEEAGMKKVSDWLEELRVEEEESKHILHIIANMSYKGGHGGTVESLEGKIVQDADRLDALGAIGIARTFAYGGAKGRLMYDPTIPPREEMTKEEYRKNNDPSLNHFYEKLLKLKDLMNTNAAKQEAEIRHLYMEQFIEQFMKEWNAQILEHHHHHH | soluble
MSLKPSTRSNVQPFRVMQMLDRVHRRRREGKDTLMFCAGQPSTGAPEAVIEEAEIALRSGPLGYTEVIGDREFRERIADWHSATYDVDTNPDNVIVTTGSSGGFVASFIATLDHGDYVAMPTPGYPAYRNILESLGAKVLNLRCTAETRFQPTAQMLEELPHKPKAVIVTSPGNPTGTIIDPEELERIAKWCDDNDAVLISDEDYHGMSFGRPLATAHQFSKNAIVVGTLSKYFSMTGWRVGWIIVPDELVTPIENLQASLSLCAPAIGQAAGRAAFTLEAGAELDAHVEAYREAREVFVDKLPEIGLGTFADPDGGLYLWVDVSAYTDDSEEWALRLLDEAGVAVAPGVDFDPEEGHKWIRLSLCASKEDTIEGVRKIGEFIKKEGHHHHHH | soluble
MGSDKIHHHHHHLNTTLSEYSIENLYGLYNHSLKFNDGESIAILHGPNGVGKTALLRSITYLFNSDFSSLSKIPFSRLFAKLSDNTEIIVTRKGVTKEQLLKHSQELHKISIEIKSKDKTTTSFSLNEAQLRPELLPPWIVLSDDGSYIDERNGMLFPEEFLHQSLFGKNKQKEIRNRETATQILEKIKVHFVETNRLYRSNSDTTWKRKKEKEMVASVDECAKHLVVLISTALKDYGKKSQELDQSFPHRFISEPIAQMSLDKLKTRLNELASQLKKLRKIGLLDAEGIQPFDPESLDKVEKSKLEIMNLYVRDSEQKLAVFDNLSKRIQVLLDGLNSKFKNKNIQLNKERGLIARGPNDFDLSLSDLSSGEQHEIVLLYELLFKVAPNTLVLIDEPELSLHMTWQKSFLPELLSISREIGFSSILATHSPFIVGDRYDLLISLDTKNNNDSME | not soluble
LRRGHLKLQRDGQIIGHTPEEWEQIFREVWPEYEIEPNPLPGYAPFDIGMWLTVEAPAYAVWIDPEDGSEYWAG | not soluble
MGSDKIHHHHHHMLNPLWLKTFITLVETGHFTQTASKLFMTQPGVSQHLNKLEQACGHQLLIRSRSGIELTEAGERLYQYALSQARAEAALLDSLDEDNPFSGSCRLACSGSLAQLLYPKLLALQAAHPGLKVHMEAAPNARIINEVQQGDKDLGIITAPPPRGLFSDTDIGTQALCLVLPASSEATTDDASLPSINELKVLGLISHPDAAHYLSLFFAHSGSPGYQNAFAEDFPISSYINQLGQILLPVSMGLGFTVLPLSVVEQFSERDKLRVCVGLERVFEPLYLIHKRQRQLPARFDTIRSLIQSVLTSTTDSPQ | not soluble
MSNYWLNIYKPRGISSAQLVSIVKKILGKTKIGHAGTLDVEAEGILPFAVGEATKLIHLLVDARKTYIFTVKFGMQTNSGDCAGKVIATKDCIPSQEEAYAVCSKFIGNVTQIPPAFSALKVNGVRAYKLAREGKKVELKPRNITIYDLKCLNFDEKNATATYYTECSKGTYIRTLAEDLALSLQSLGFVIELRRTQVGIFKEENAIRIKSPDEITKNALEENSIKIEAILDDILVLDATDSQAQQIKYGQKCLFNYEKDFRHLAKFAYREEFKGNTERNTTAYTLVREDASTGLTYKLPLEVEFGKMSVDLLWVRYKGTLLAIGSLNKSCFNSLRVFNLTQDFF | not soluble
MKRYPRDMRGHGPTPPDAAWPGGARIAVSIVLNYEEGGENCLLHGDAQSEAFLSDIAGAQPWPGQRHWNMESIYDYGARAGFWRLHRLFTGLNIPVTVYGVATALARSPEQVAAMKSAGWEIASHGLKWVEHRDMPEEEERRQIAEAIRLHAEVVGERPRGWYTGRCSVNTVRLTAEEGGFDWISDTYDDDQPYWLETGTRDQLVIPYTLEANDMRFATAPGYIEGEQFFTYLRDSFDTLYAEGCAGQAKMFSIGLHCRLIGRPGKIAGLKRFLDYARTHERVWFPCRGDIARHWHETHPHRRRPRPSRMDRESFVAHFGGIYEHSPWIAERAFELELGPAHDSPAGLANALARIFRSATPAERLSVLKAHPDLAGKLAQARRLTASSSFEQSSAGLDALTDAERAEFATLNADYVAKHGFPFIIAVRDHDKAGILAAFETRLAHDSATEFATACRQVERIAELRLQDMLKLEHHHHHH | not soluble
GSKKKVKELKVLDSKTAQNLSIFLGSFRMPYQEIKNVILEVNEAVLTESMIQNLIKQMPEPEQLKMLSELKEEYDDLAESEQFGVVMGTVPRLRPRLNAILFKLQFSEQVENIKPEIVSVTAACEELRKSENFSSLLELTLLVGNYMNAGSRNAGAFGFNISFLCKLRDTKSADQKMTLLHFLAELCENDHPEVLKFPDELAHVEKASRVSAENLQKSLDQMKKQIADVERDVQNFPAATDEKDKFVEKMTSFVKDAQEQYNKLRMMHSNMETLYKELGDYFVFDPKKLSVEEFFMDLHNFRNMFLQAVKENQKRRETEEKMRRAKLAKEKAEKERLEKQ | soluble
MSGYDRALSIFSPDGHIFQVEYALEAVKRGTCAVGVKGKNCVVLGCERRSTLKLQDTRITPSKVSKIDSHVVLSFSGLNADSRILIEKARVEAQSHRLTLEDPVTVEYLTRYVAGVQQRYTQSGGVRPFGVSTLIAGFDPRDDEPKLYQTEPSGIYSSWSAQTIGRNSKTVREFLEKNYDRKEPPATVEECVKLTVRSLLEVVQTGAKNIEITVVKPDSDIVALSSEEINQYVTQIEQEKQEQQEQDKKKKSNH | soluble
AFTFLHTADLHLDAPLRAVALRDPELAAEIGVASRTAFSRIVDLCLAEAVAFLVIAGDLWDGTYSSTKTPRFLKQELLRLEAAGIGCYILRGNHDALARQTGELEAPANTTVFGARPSTVELSIDGQPVALHGLSFREPHAPESLLPRYPAPKPGAFNLGLMHTSLNGSPGHDPYAPCSLAELEAHGYDYWALGHIHRRFVHRGRATVVMPGTPQGRDIGEAGAASVTLVQVGDDGAVTLEERSVA | not soluble
METFILSSDSDDDSGPPPSKRRTIEGIPRSFSGDKKIRFSFGASNMSQDTTQEIIPEDTDTVPLTIPSTPALSGKFDSKTPKSVRRRSVSMSCFTPIVETINQPPTNQACSSFLQKEYNFHDLSSDEEGGDGGAGCSKDEDKIIEDNLNLRALLSPEKKKRKEKIEEVQNEFYGVYCLISRSDRPCYKNRCYIGYTVDPNRRIMQHNGGRDKGGAKKTDSRGPWDMVCVVHGFPNHVAALHFEWAWQNPLVSKSLKEKQLRKERKETPFAFQLRIACELMNSSAFCRFALTFRWLITTEELPFPTSCVPPDHTKLRFGKVKKEMSLVPSKREDYLEMGECRICGKDIEKLWSLVRCISATCPSHFHSKCLSENGLKLKNEHVDHVYPLKANCPTCGQFYLWGDIIREQRRIIKISTKCAEEFQNMVVRKELPHREISPISSKK | not soluble
MDCLNIEELTRIIIKEIRDYEEKEGVKSRRKIEVPINVSARHVHLSEEHMEALFGKGYTLTPIRDLMQPGEFAAKETVIIVGPKGILPSVRILGPARKRTQVEVSKTDCYTLGIEAQVRDSGNHEGTPGCIIVGPMGAVKLEEGVIVAMRHVHMPKNLAEKIGIKDKNLLKVEVGEERKLIFENVLARVSEKFVLEMHVDTDEANAAGIKNQAKGYILL | not soluble
HQQQRSVMTEEYKVPDGMVGFIIGRGGEQISRIQQESGCKIQIAPDSGGLPERSCMLTGTPESVQSAKRLLDQIVEKGR | soluble
PLPIPPPPPDIQPLERYWAAHQQLRETDIPQLSQASRLSTQQVLDWFDSRLPQPAEV | soluble
